Experimental data as given in patent US20240002497A1 (Merck Sharp & Dohme, published 2024).
Positions count from the first letter of the chain named. Names may count otherwise. Blank lines part the entries; values can stand above or below the binder they belong to.

Tests used:
[1] = biological target: T1, huNav1.7α (human Nav1.7 alpha subunit, expressed without β subunits) (human, UniProt Q15858 1-1988); test: binding FACS, HEKa cells
T1 construct: also called HEK293 human Nav1.7α; HEKa Nav1.7α

[2] = biological target: T2, huNav1.7α + β1 (human Nav1.7α co-expressed with Navβ1) (human, UniProt Q15858 1-1988; Q07699 19-218); test: binding FACS, HEKa/β1 cells
T2 construct: also called HEK293 human Nav1.7α + β1; HEKa/β1 Nav1.7α

huNav1.7α+β1 = biological target: T3, huNav1.7α+β1 (human, UniProt Q15858 1-1988; Q07699 19-218); test: binding FACS, HEKa/β1 cells
T3 construct: also called huNav1.7-beta1; HEKa/β1
Summary of the method: (§1)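 Cells at 1×10^5 per well incubated 30 min at 4 °C with purified FLAG3-tagged ISVD in FACS buffer (PBS, 10% FBS, NaN₃); bound ISVD detected via murine anti-Flag by flow cytometry, dead cells excluded with 1 μg/mL propidium iodide.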

huNav1.7α+β1-β2-β3 = biological target: T4, huNav1.7α+β1-β2-β3 (human, UniProt Q15858 1-1988; Q07699 19-218; O60939 30-215; Q9NY72 23-215); test: binding FACS, CHO FlpIn cells
T4 construct: 5N11S variant; also called huNav1.7-beta1-beta2-beta3; huNav1.7α+Navβ1-Navβ2-Navβ3
Summary of the method: as §1

huNav1.7α = biological target: T5, huNav1.7α (human, UniProt Q15858 1-1988); test: binding FACS, HEKa cells
T5 construct: HEK cells expressing the α subunit alone; also called HEKa; HEK huNav1.7α
Description: Binding of the ISVDs to cell-expressed Nav1.7α was detected via murine anti-Flag (Sigma, catalog #F1804). Briefly, cells were resuspended in FACS buffer (PBS, 10% FBS, NaN₃) and transferred to a 96-well V-bottom plate at 1×10^5 cells/well. Purified FLAG3-tagged ISVD was diluted in FACS buffer and added to the cells for 30 minutes at 4° C. […] Prior to the read-out, the samples were resuspended in 1 μg/mL propidium iodide (Sigma, catalog #P4170) to exclude dead cells. Between each step, the cells were centrifuged for 5 minutes at 200 grams and washed with 100 μL/well FACS buffer.

EC50 [1]: 1.8 nM | EC50 [2]: 1.4 nM
B1: F010301556 (VHH)
VHH: EVQLVESGGGLVQAGGSLRLSCAASGRILRIGYMRWHRQGAGKQREFVARITGGSATGYADSVKGRFTISRDNAKNTVYLQMNNLNPEDTAVYYCEALVTASVRGGSIHSGTYWGRGTLVTVSS
notes: also called F0103387G05(D23A, D53G, D54G, D58G)

EC50 (huNav1.7α+β1): 1.6 nM | EC50 (huNav1.7α+β1-β2-β3): 3.4 nM | EC50 (huNav1.7α): 1.5 nM
B2: F010301346 (VHH)
VHH: B1 VHH with A23D, G53D, G54D
notes: vs 387G05: D58G

EC50 (huNav1.7α+β1): 1 nM | EC50 (huNav1.7α+β1-β2-β3): 2.2 nM | EC50 (huNav1.7α): 1.2 nM
B3: F010301566 (VHH)
VHH: B1 VHH with A23D, G53D
notes: vs 387G05: D54G, D58G

EC50 (huNav1.7α+β1): 1.9 nM | EC50 (huNav1.7α+β1-β2-β3): 4.2 nM | EC50 (huNav1.7α): 2.2 nM
B4: F010301367 (VHH)
VHH: B1 VHH with A23D, G54D, G58D
notes: vs 387G05: D53G

EC50 (huNav1.7α+β1): 2.4 nM | EC50 (huNav1.7α+β1-β2-β3): 3.5 nM | EC50 (huNav1.7α): 1.9 nM
B5: F010301564 (VHH)
VHH: B1 VHH with A23D, G58D
notes: vs 387G05: D53G, D54G

EC50 (huNav1.7α+β1): 1.1 nM | EC50 (huNav1.7α+β1-β2-β3): 2.1 nM | EC50 (huNav1.7α): 1.2 nM
B6: F010301560 (VHH)
VHH: B1 VHH with A23D
notes: vs 387G05: D53G, D54G, D58G

EC50 (huNav1.7α+β1): 2 nM | EC50 (huNav1.7α+β1-β2-β3): 4.6 nM | EC50 (huNav1.7α): 2.3 nM
B7: F010301445 (VHH)
VHH: B1 VHH with A23D, G53D, G54D, G58D, S107Y
notes: vs 387G05: S100dY

EC50 (huNav1.7α+β1): 2.1 nM | EC50 (huNav1.7α+β1-β2-β3): 3.8 nM | EC50 (huNav1.7α): 2 nM
B8: F010301557 (VHH)
VHH: B1 VHH with G58D
notes: vs 387G05: D23A, D53G, D54G

EC50 (huNav1.7α+β1): 1.9 nM | EC50 (huNav1.7α+β1-β2-β3): 2.5 nM | EC50 (huNav1.7α): 1.2 nM
B9: F010301562 (VHH)
VHH: B1 VHH with G53D, G58D
notes: vs 387G05: D23A, D54G

EC50 [1]: 1.5 nM | EC50 [2]: 1 nM
B10: F010301563 (VHH)
VHH: B1 VHH with G53D, G54D
notes: also called F0103387G05(D23A, D58G)

EC50 (huNav1.7α+β1): 1.8 nM | EC50 (huNav1.7α+β1-β2-β3): 3.5 nM | EC50 (huNav1.7α): 1.9 nM
B11: F010301314 (VHH)
VHH: B1 VHH with G53D, G54D, G58D
notes: vs 387G05: D23A

EC50 (huNav1.7α+β1): 2.3 nM | EC50 (huNav1.7α+β1-β2-β3): 4.5 nM | EC50 (huNav1.7α): 2.5 nM
B12: F010301372 (VHH)
VHH: B1 VHH with A23D, G53D, G54D, G58D, S107G
notes: vs 387G05: S100dG

EC50 (huNav1.7α+β1): 1.4 nM | EC50 (huNav1.7α+β1-β2-β3): 2.3 nM | EC50 (huNav1.7α): 1.8 nM
B13: F010301556 (VHH)
VHH: B1 VHH
notes: as for B1

EC50 (huNav1.7α+β1): 2.1 nM | EC50 (huNav1.7α+β1-β2-β3): 4.2 nM | EC50 (huNav1.7α): 1.3 nM
B14: F010301344 (VHH)
VHH: B1 VHH with A23D, G53D, G58D
notes: vs 387G05: D54G

EC50 (huNav1.7α+β1): 1 nM | EC50 (huNav1.7α+β1-β2-β3): 2.1 nM | EC50 (huNav1.7α): 1.4 nM
B15: F010301565 (VHH)
VHH: B1 VHH with A23D, G54D
notes: vs 387G05: D53G, D58G

EC50 (huNav1.7α+β1): 0.93 nM | EC50 (huNav1.7α+β1-β2-β3): 1.8 nM | EC50 (huNav1.7α): 1.5 nM
B16: F010301558 (VHH)
VHH: B1 VHH with G54D
notes: vs 387G05: D23A, D53G, D58G
